Data as given in the DeepSol protein solubility set.

experiment: soluble on expression in E. coli; label from the status in PepcDB or PDB records

Row | Sequence | soluble on expression in E. coli
1 | MSLLLENCKLETGFSTVNQRIVATETASYDIRIENEVCTAVAPQLRPLENETVIDVNQQLVLPALREMHIHIDKTYFGGPWKACRPLTKGILTRIEEETWLLPEQLPTSLERACQVIEQYIQQGHYHIRSHCNVDPSIGTKHIEITKEAFSRYEQYITHEIVAFPQHGLLRSQVEPLMREALRMGATHVGGVDPALVDRHVDHSIAKIFELATTFNKKIDVHLHARDTLGLYEFNKFVDYTEQAKMFGKVTLSHALALGSLEEAAIRDIAQKFIETGIDLTSTVPIGMPTMPIPTLVEQGVKISVAHDSLTDHWSPFGSGNTIEKLNTAAQRFKISDEYRLNRLWGLASNFVTPLDPNGQQVWPNVGDSADFLLFNAESTAHVIARQQPIQQLILKGQLVEAVQKGEKEEGHHHHHH | soluble
2 | MGSDKIHHHHHHMVQVDNTFYDGSAYDPETVRFFDVAQEGAQVRQIGGLVAQGALSAFEGLRPRSVVVMLDGQIHRSCVRLVETLHSPMRQPLVITSTLPHYIGALDVLIVITDNGADEKALKALITASQRGVATLLIGPSSGPLIDESPQDTFVLPTLPTAAGLSPARIVASISTLLDLLEADPSIISDRLEHLADCIDEEVESLSPERDELVNPGRKLRAYVDHARIVHTGRTDVGLAIANVIAPIWTRRGLVSAVLDFPELMESLPELRGPEPITDDIFHDPFIDDEPGVVPFRAVVWAEEEPGIPDAMAQSCDGPSKGALTQALRLLVRGQSATTYSIEEKDL | not soluble
3 | MKFFSNPKQEAQTHFHLHKDKETMSVSAIFGTGIVTVAASPVLRQFQVPKLGNGGGLGMVIECSSRPQKKSTAHHRKTRPKKTQPWDIKRKPTVYAPLPPLPAEWSPFTLASDDGGAATAAGDLVSGAA | not soluble
4 | MSLKQPTSTTVTRTDYLKHKVKVPKHPKRIVASYLEDDLVALGIKPVVQWSVKNGSGTQAYLKEQLKGVPLIDYSLPYEAVTKAKPDLILIGTSSAVANGKYAQYNKIAPTYVVKNGTTVTWRQTFLDVAKVVNRQAKAKKVLAKYDKQVQTTRQALKKSGQHKVAVLWVTNNTAYMVNDNSASGALLYQDLQLGEPSLVKQVSKSATADWSAVSLEKLAKLDADDIFLVNSQKSASLFKDPLWKNIKAVKNNHLYQYGDSSSWQYSGPIAYSQMIDMVKTDLLKEGHHHHHH | soluble
5 | MGHHHHHHSHMVAWKRQLILFGGFHESTRDYIYYNDVYAFNLDTFTWSKLSPSGTGPTPRSGCQMSVTPQGGIVVYGGYSKQRVKKDVDKGTRHSDMFLLKPEDGREDKWVWTRMNPSGVKPTPRSGFSVAMAPNHQTLFFGGVCDEEEEESLSGEFFNDLYFYDATRNRWFEGQLKKLRSGWRRRTRKRTVRRLRAPRVGSTTKTAERRAVRRTESPCQGRLASAVPTSAQDPAVLSEALGASVRPDAQERAEGGWPRPGCELSPMV | not soluble
6 | ASITGDALVALPEGESVRIADIVPGARPNSDNAIDLKVLDRHGNPVLADRLFHSGEHPVYAVRTVEGLRVTGTANHPLLCLVDVAGVPTLLWKLIDEIKPGDYAVIQRSAFSVDCAGFARGKPEFAPTTYTVGVPGLVRFLEAHHRDPDAKAIADELTDGRFYYAKVASVTDAGVQPVYSLRVDTADHAFITNGFVSHN | soluble
7 | MSLFLKDDSIQIREVWNDNLQEEMDLIRDVVDDFPYVAMDTEFPGIVVRPVGTFKSNADYHYETLKTNVNILKMIQLGLTFSNEQGNLPTCGTDKYCIWQFNFREFDLDSDIFALDSIELLKQSGIDLAKNTLDGIDSKRFAELLMSSGIVLNENVHWVTFHSGYDFGYLLKLLTCQNLPDSQTDFFKLINVYFPTVYDIKHLMKFCNSLHGGLNKLAELLEVERVGICHQAGSDSLLTSCTFRKLKENFFVGPLHKYSGVLYGLGVENGQVAI | soluble
8 | WGYQTDGRFQNFDEINTYPIQNGDNGNSKELPGDYILKDVNGDGVVNDLDKTPLFWSGSPLIHYGFNVEASWKNFDFYALFQGSALYTVQFDEVYAKMLCFKGGNTPEYFYDRWHLSDPYDANSEWIPGEWPAIRLEQDMGSFYTRDSQIWRKNASYLRLKTIEIGYTFSPRLMHKLGIGSLRIYANGNNLFTVCDPFVKAFDPEKIEGDYSAGLNYPLNKSFNFGLTLNF | not soluble
9 | MPLFKERNCSVSIVLDSRTRRKNAYEFPLSLRFTIDRKFFYLTVGSSFSEKKFSDICNATKCKSENYKLQKEWKDTFVPKYKKVLSNLNKGGILTFEMVRQCIIGEDVVLSEEETTKSQSFISIWEQVINGFKTDDGGARFTTAESYECALKSFRKILGANTIKGFCISAAEIQKWKDGMHNGVKDENGAVVGKISDTTVGIYLRCCRAVWNRCVHEGFLKDIPYPFSNKKEKGLVSIPKSAKRKQNFLNVAQMTELYNLFVSKEYPEHWTEEYTQRAHYSLGLFLAQYLCNGFNMADAGRLTYDNYYYKTDGKAFRFNRKKTSRRSADGSEVIVPIIPPLQYVLDEIAAPPTRDGFVFPDILKGAETEELRRKYTVQENSNVKDRVIKICHEALHWDKSICPSGTWCRHSFATNLHNAGVDMDYISESMGHASSDHAITQIYIEHYPLDIQMQNNSKLLNLGETSERDALLAKLANMSTEELAKLFA | not soluble
10 | MLKVEKFKKLKRFEVYYCLKNSFLEEVDIEMKYSCSITTIMSNGSASLLMNWEELTPGHCFTSYTTNPIAGDYGLNASAIDGHTEELVATHPAGTLENATQ | not soluble
11 | MKGVHHRPHEAVPTWACGWGVATTEHMAVSRRKHFSSICLHAQGSSRLPVLSTGTAVSELLRTSLCQVVELGPSPYLSLVPTVLLTVQHLGALAWGWRPW | soluble
12 | MGSDKIHHHHHHMDLMSFKEREISKKDCVELFEDTENFFDILKLADSIRKDIVGDTVTFVKNTNIETTNVCTMGCKFCAFSVSKNSPEAFKLDADEIAKKAVIAKKSGLTEVTIHGGIHPDVDTHFQVETINKVNSATSKLGGIYTHAYSPQEILNGAENAGLSIKEALKMLNEAGLRTIPGTAAEILDDEVRSDICPLKMSTKKWIDIMKTAHKTGIKTTSTIIYGHVEEYKHIVDHLSILKELQEETGGITEFIPMSFLHENTPLYKSGRVTDGASGLYELKLYAIARILFKESIKNIQAPRVKIGTKLSQLILKSGANDLGGTLVEDKVSKAAGSIYEDASVDLMKNAITSIGRIPKERTTLYEIIE | not soluble
13 | MSAIPAEESDQLLIRPLGAGQEVGRSCIILEFKGRKIMLDCGIHPGLEGMDALPYIDLIDPAEIDLLLISHFHLDHCGALPWFLQKTSFKGRTFMTHATKAIYRWLLSDYVKVSNISADDMLYTETDLEESMDKIETINFHEVKEVAGIKFWCYHAGHVLGAAMFMIEIAGVKLLYTGDFSRQEDRHLMAAEIPNIKPDILIIESTYGTHIHEKREEREARFCNTVHDIVNRGGRGLIPVFALGRAQELLLILDEYWQNHPELHDIPIYYASSLAKKCMAVYQTYVNAMNDKIRKQININNPFVFKHISNLKSMDHFDDIGPSVVMASPGMMQSGLSRELFESWCTDKRNGVIIAGYCVEGTLAKHIMSEPEEITTMSGQKLPLKMSVDYISFSAHTDYQQTSEFIRALKPPHVILVHGEQNEMARLKAALIREYEDNDEVHIEVHNPRNTEAVTLNFR | soluble
14 | MSTSLVDRLWYGQGRPLALLTPLAWLYRAVSESRRRKAWHARNESLPVPVVVVGNITAGGTGKSPLTASLVQCMNQHGWKPVILSRGYGGKSSQYPLLVADGTPAGVCGDEPLMLARATGCPVVVDPDRCRGARWALENGLGDVLICDDGLQHYRLPRDIELAVFDARRGTGNGAIIPVGPLREPVERLNSVDFVVLNGAEFPEAGETIESFAGVDHPEIHAMELVPSALVNLNSGETLSPEQLKGKPVRAVAGIGNPGRFFETLRNLGAHVNEVPFPDHHHFRPEDLASGALEWLVMTAKDAVKCHGFAPDNAWVLTVQARLSEPFEQHFLERLRASSGQLQTDISEESNHGLEHHHHHH | not soluble
15 | MGSDKIHHHHHHMLKEAISYSIADESVRIVQVTDPHLFADPEAQLLGVNTSKSLAAVLNTIRAVNYPAHLLLATGDLSQDYSPESYRQFVSAVAPLNLPCHYLPGNHDDPRIMFLHMQGERVFGQQRILVGKWQILMLDSTVRGKPGGHMGEGQFELIEQAIAAHPEHHTLLVMHHNPILVNCAWLDQHCMDNGAEFLRRVAQYPQVKALLWGHVHQQLDTYYDGPHRALQLMATPSTCIQFKPQSPYFALDGLQPGYRLLELKADGSISTNVYRVPGNLFSPDKDSSGY | not soluble
16 | MGSDKIHHHHHHASCDKFDEINTDPDATTKVTSSLLATGLLLDITSSSASKSFIYDELLAKQMAWGESMEDYQYNVFGRSGFGGYTTLINAQKMVESVSDDNVNAYDGLAHFIKAYKIFYMSMEMGDLPYEEALQGELGLVRPKYNTQKEVMNFILSDLETAYELFSTAKDFDGDPILGGSISKWKKATTAFQLKVLMHLSKKESDADLKVKERFARIVASGSLMESNEDNLQMKYADKANTVYPFHNTNTKHAGYAMLSTMLIDKFKATGDIRMFYYAKPAKAKLNEGVTADSWDAYIGTDPSLPFEQIEKAYATEQYSGFNARYTDYPSGEPVVRLGYAEQNFILAEAAVRGWISGDASAYYKKAIRAHMEFIASNTPDEEVYHHGHPITEEAIAAFLETPAIQLSGEKEEDIEKILTQRYLASFMQHPYDVYYDYRRTGYPVLPINPATNRNTMNDRLPMRWMYPKSESDYNLEHQNEALERQFGGVDDVNKLMWILQ | not soluble
17 | GPGSMLILLFFSPEMLRRTLSRCFSADAIGPVHPDVMWGYMDARYAGPGWVSWIKQLPVETLTMQGGTSMTNMNDRTGVIADPEDPRHPIALIQWGPMNHYDGAFMQLSYGDYGPISQGSRLMQVLYDNYLEPFSMNRVCAQLYFYQKVPNNYHESVEASAEYIGQTASLIGQVLVGMGSVIMEGVTVKGDTNCVYIAEGVQVLENTCIVSDAPTDLLAYQRHEAINPYQQWDGMDGVCRIMQNTIIEPNCFLDSCSIGPFNRIGHNTKIMKGVTTGTMVHILPGSVVTKDTKIGDGELWGGAPAVKIGKVSKFEWKRPYFASLLHRESVVESYRNMSRYGDQVVHFQDKMGKLDTLMLQYEKDVPASVKAKIKEFVQGREPFHHMLTRITQGWSPANRPDDKNYNLCPPLPGVKLFAEHNNDSSDSDLHGTYMDITNIFNDFRW | not soluble
18 | MRTVDFTPLYRNAIGFDRLLNMMENSAAKNAQGGYPPYNIEQKEDNQYRITMAVAGFGDEEIDITQQENTLIVRGERKPEESKNYIYQGIAERDFERKFQLADYVKVTGATMEHGLLHIDLEREIPEAMQPRKIAINGKHLLENK | not soluble
19 | MGSDKIHHHHHHMSEALTIAGVDIQPGTQHQLELPVASLYTDTQVSIPVHVIRAKKDGPKVFVSAAVHGDELNGIEIIRRLIQSKLKLLKGTLILVPMVNVYGVLNQSRYMPDRRDLNRCFPGSPKGSLAGRVAYTFLNSIVQHCDYGIDLHTGAIHRSNLPQIRANLDDEQTLALAQAFGVPVLLNANVRDGSLREAAVNKGTRVLLYEAGQALRFDELSIQTGERGILNVLSSLGLIRKRRLRKKIEPFIANRSDWTRASASGFVCEFAKLGAYVEKGQVLAEINSPLGELIQSVVSNRTGIVIGKQNIPLVLEGDAMFHVAYFGSAADEVAEHIEIMNDQIMPLTTQTI | not soluble
20 | MGSDKIHHHHHHLNNQIKIFEGNKIRSIWDNEKEEWYFSVVDVVAVLTESKDPQVYWRVLKKRLKEEGNKTVTNCNALKMKAADGKMRLTDVADMQGIFRIIQSVPSPKAEPFKMWLAEVGKERIDEIIDPELTIDRALETYLKKGYSREWINQRLQAIQVRKELTDTWQDHGVEKGKEYAILTNEITKAWSGMTTREYKDLKGLKKENLRDNMSTLELVLNMLAEATTTELTNATHPQGLEENKKVAKRGGSIAGNARKEIEQETGKSVITSKNAIDFVKLIEDVSSKEFEDKDKKDKD | not soluble
21 | NNADYIEMKVPAQPEYVGIIRLTLSGVASRMGYTYDEIEDLKIAVSEACTNAVQHAYKEDKNGEVSIRFGVFEDRLEVIVADEGDSFDFDQKQQDLGPYTPSHTVDQLSEGGLGLYLMETLMDEVRVQNHSGVTVAMTKYLNGERVDHDTTIKNYETN | not soluble
